From PMC2814896 come the findings set out here.

What is called Km is the concentration of substrate that gives half-maximal velocity.

Substrate in data set [1]: N=C(N)NCCCCN
Put plainly: saturable uptake in hOCT1-HEK cells. It counts as cell-based, Homo sapiens.

Substrate in data set [2]: N=C(N)NCCCCN
Kind of data set: radiolabeled uptake in hOCT2-HEK293 vs wild-type HEK293 cells. The data set is classed as cell-based, Homo sapiens.

B1: OCT1 (hOCT1) (Homo sapiens) (protein)
chain: MPTVDDILEQVGESGWFQKQAFLILCLLSAAFAPICVGIVFLGFTPDHHCQSPGVAELSQRCGWSPAEELNYTVPGLGPAGEAFLGQCRRYEVDWNQSALSCVDPLASLATNRSHLPLGPCQDGWVYDTPGSSIVTEFNLVCADSWKLDLFQSCLNAGFLFGSLGVGYFADRFGRKLCLLGTVLVNAVSGVLMAFSPNYMSMLLFRLLQGLVSKGNWMAGYTLITEFVGSGSRRTVAIMYQMAFTVGLVALTGLAYALPHWRWLQLAVSLPTFLFLLYYWCVPESPRWLLSQKRNTEAIKIMDHIAQKNGKLPPADLKMLSLEEDVTEKLSPSFADLFRTPRLRKRTFILMYLWFTDSVLYQGLILHMGATSGNLYLDFLYSALVEIPGAFIALITIDRVGRIYPMAMSNLLAGAACLVMIFISPDLHWLNIIIMCVGRMGITIAIQMICLVNAELYPTFVRNLGVMVCSSLCDIGGIITPFIVFRLREVWQALPLILFAVLGLLAAGVTLLLPETKGVALPETMKDAENLGRKAKPKENTIYLKVQTSEPSGT
Regarding B1, the Km in data set [1] stood at 30 mM.

B2: OCT2 (hOCT2) (Homo sapiens) (protein)
chain: MPTTVDDVLEHGGEFHFFQKQMFFLLALLSATFAPIYVGIVFLGFTPDHRCRSPGVAELSLRCGWSPAEELNYTVPGPGPAGEASPRQCRRYEVDWNQSTFDCVDPLASLDTNRSRLPLGPCRDGWVYETPGSSIVTEFNLVCANSWMLDLFQSSVNVGFFIGSMSIGYIADRFGRKLCLLTTVLINAAAGVLMAISPTYTWMLIFRLIQGLVSKAGWLIGYILITEFVGRRYRRTVGIFYQVAYTVGLLVLAGVAYALPHWRWLQFTVSLPNFFFLLYYWCIPESPRWLISQNKNAEAMRIIKHIAKKNGKSLPASLQRLRLEEETGKKLNPSFLDLVRTPQIRKHTMILMYNWFTSSVLYQGLIMHMGLAGDNIYLDFFYSALVEFPAAFMIILTIDRIGRRYPWAASNMVAGAACLASVFIPGDLQWLKIIISCLGRMGITMAYEIVCLVNAELYPTFIRNLGVHICSSMCDIGGIITPFLVYRLTNIWLELPLMVFGVLGLVAGGLVLLLPETKGKALPETIEEAENMQRPRKNKEKMIYLQVQKLDIPLN
For B2, the Km in data set [2] came out at 2 mM.
